Experimental data taken from US20150328292A1, “CASPASE POLYPEPTIDES HAVING MODIFIED ACTIVITY AND USES THEREOF” (BELLICUM PHARMACEUTICALS, INC., priority 2014, published 2015).
Substitutions are numbered along the chain they refer to. Names may count otherwise. “Also recorded” adds a separate entry of the source. Like-named read-outs stand apart in the source and are kept apart here.

Assays:
[1] = target: chimeric caspase-9 polypeptide (Homo sapiens, UniProt P55211+P62942, F37V); experiment: AP1903-triggered apoptosis/signaling of cells expressing chimeric caspase-9 polypeptide; format: cell-based
Sequence of chimeric caspase-9 polypeptide (P62942 2-108 F37V limits assumed): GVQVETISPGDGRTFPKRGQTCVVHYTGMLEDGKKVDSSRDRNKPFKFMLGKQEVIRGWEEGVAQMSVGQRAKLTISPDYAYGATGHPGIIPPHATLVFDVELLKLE
Sequence of chimeric caspase-9 polypeptide (P55211 135-416 limits assumed): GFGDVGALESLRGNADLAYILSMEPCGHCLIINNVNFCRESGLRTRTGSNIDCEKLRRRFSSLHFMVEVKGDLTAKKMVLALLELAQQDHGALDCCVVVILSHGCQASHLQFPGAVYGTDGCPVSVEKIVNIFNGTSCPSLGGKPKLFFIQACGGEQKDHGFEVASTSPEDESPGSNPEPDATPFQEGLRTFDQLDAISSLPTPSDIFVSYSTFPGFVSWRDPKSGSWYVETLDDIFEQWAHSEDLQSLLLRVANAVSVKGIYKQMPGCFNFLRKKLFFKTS

[2] = tested on: CD3+ΔCD19+ cells; experiment: CASPALLO phase I clinical trial, AP1903 in patients with GvHD after iCasp9 T cells; format: in vivo, human
[3] = tested on: human CD3+CD19+ T cells; experiment: AP1903 dose-dependent elimination in vivo of transduced T cells in NSG mice; parameters: species or system mouse
Protocol: T cells were transduced with SFG-iCasp9-2A-ΔCD19 retrovirus and injected i.v. into immune deficient mice (NSG). […] After an additional 24 hours, mice were sacrificed and lymphocytes from the spleen (FIG. 61A) and peripheral blood (FIG. 61B) were isolated and analyzed by flow cytometry for the frequency of human CD3+CD19+ T cells.
T cells were transduced with SFG-iCasp9-D330E-2A-ΔCD19 retrovirus and injected i.v. into immune deficient mice (NSG). […] After an additional 24 hours, mice were sacrificed and lymphocytes from the spleen (A) were isolated and analyzed by flow cytometry for the frequency of human CD3+CD19+ T cells.

[4] = cited from earlier work; for safety and tolerability: healthy volunteers, 0.01-1.0 mg/kg
[5] = tested on: HEK293T/16 cells; experiment: SEAP reporter-based surrogate killing assay (basal activity and AP1903 IC50); format: cell-based, human; settings: for basal activity / basal signaling (in words): AP1903-independent SEAP activity, vs wild type; for relative SEAP activity Units (basal activity): no AP1903, higher SEAP = lower basal activity
How it was run: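 HEK293T/16 cells transiently co-transfected with iCasp9 mutant plasmid (800 ng–2 μg) and SRα-driven SEAP plasmid (500 ng) per million cells. Supernatants heat-treated 65 °C, 45 min, then SEAP read by 4-MUP hydrolysis fluorescence (ex/em 355/460 nm). Lower SEAP signal indicates higher iCasp9 activity, i.e. cell killing.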

[6] = tested on: PG13 packaging cells; format: cell-based
[7] = tested on: HEK293T/16 cells; experiment: Western blot of protein expression and proteolysis; format: cell-based, human
Protocol: The lysates were collected and lysed on ice for 30 min. After pelleting cell debris, protein concentrations from overlying supernatants were measured in 96-well plates with BCA™ Protein Assay as recommended by the manufacturer. 30 μg of proteins were boiled in Laemmli sample buffer (Bio-Rad, Hercules, Calif.) with 2.5% 2-mercaptoethanol for 5 min at 95° C. before being separated by Criterion TGX 10% Tris/glylcine protein gel. Membranes were probed with 1/1000 rabbit anti-human caspase-9 polyclonal antibody followed by 1/10,000 HRP-conjugated goat anti-rabbit IgG F(ab′)2 secondary antibody (Bio-Rad). Protein bands were detected using Supersignal West Femto chemiluminescent substrate. To ensure equivalent sample loading, blots were stripped at 65° C. for 1 hour with Restore PLUS Western Blot Stripping Buffer before labeling with 1/10,000 rabbit anti-actin polyclonal antibody. Unless otherwise stated, all the reagents were purchased from Thermo Scientific.

[8] = tested on: Activated T cells; experiment: Control of T cell proliferation in vitro over 10 days with AP1903; format: cell-based, human; settings: AP1903 on days 0 and 4, 10 days

CC[C@H](C(=O)N1CCCC[C@H]1C(=O)O[C@H](CCc1ccc(OC)c(OC)c1)c1cccc(OCC(=O)NCCNC(=O)COc2cccc([C@@H](CCc3ccc(OC)c(OC)c3)OC(=O)[C@@H]3CCCCN3C(=O)[C@@H](CC)c3cc(OC)c(OC)c(OC)c3)c2)c1)c1cc(OC)c(OC)c(OC)c1 (relative stereo) [AP1903, 2-Piperidinecarboxylic acid, 1-[(2S)-1-oxo-2-(3,4,5-trimethoxyphenyl)butyl]-, 1,2-ethanediylbis[imino(2-oxo-2,1-ethanediyl)oxy-3,1-phenylene[(1R)-3-(3,4-dimethoxyphenyl)propylidene]]ester, [2S-[1(R*),2R*[S*[S*[1(R*),2R*]]]]]-(9Cl)]
amount of AP1903 needed in vitro for effective signaling of cells [1]: 0.1 to 10 nM
time to normalization of bilirubin concentration ([2]; patient 1, post-treatment): ≤ 24 h
time to disappearance of skin rash ([2]; patient 2, post treatment): ≤ 24 h
time to resolution of skin and liver aGvHD ([2]; patients with grade I/II aGVHD): ≤ 24 h
ablation of CD3+ΔCD19+ cells ([2]; within 30 minutes of infusion, 0.4 mg/kg): > 90%
further reduction of CD3+ΔCD19+ cells ([2]; within 24 hours): further log reduction
AP1903 dose sufficient to eliminate most modified T cells in vivo ([3]; T cells with wild-type iCasp9, i.p., 24 hours): 0.5 mg/kg
adverse event considered possibly related ([4]; 1 volunteer at 1.0 mg/kg, facial flushing): vasodilatation
plasma level, % of maximal concentration ([4]; 2 hours post-dose): ~7%
plasma level, % of maximal concentration ([4]; 10 hours post-dose): ~1%
safety and tolerability [4]: proven safe in healthy volunteers; also recorded: safe and well tolerated at all dose levels; also recorded: proven safe at the required dose; also recorded: substantially no significant adverse effects
safety and tolerability ([4]; listed as API903): No serious adverse events

B1: D330E: chimeric modified caspase-9 polypeptide variant (protein)
chain: VDGFGDVGALESLRGNADLAYILSMEPCGHCLIINNVNFCRESGLRTRTGSNIDCEKLRRRFSSLHFMVEVKGDLTAKKMVLALLELARQDHGALDCCVVVILSHGCQASHLQFPGAVYGTDGCPVSVEKIVNIFNGTSCPSLGGKPKLFFIQACGGEQKDHGFEVASTSPEDESPGSNPEPDATPFQEGLRTFDQLEAISSLPTPSDIFVSYSTFPGFVSWRDPKSGSWYVETLDDIFEQWAHSEDLQSLLLRVANAVSVKGIYKQMPGCFNFLRKKLFFKTSASRA
basal activity / basal signaling (in words) [5]: less basal activity than wild type caspase-9; also recorded: statistically lower basal signaling
CD19 mean fluorescence intensity (MFI) of transduced PG13 cells [6]: enhanced CD19 mean fluorescence intensity
viral titers [6]: higher viral titers
in vivo cytotoxicity profile in response to AP1903 ([3]; NSG mice, AP1903 0-5 mg/kg i.p., spleen): titratable in vivo

B2: D330A-N405Q: ΔCasp9 (res. 135-416) D330A N405Q, SEQ ID NO: 28 (protein)
chain: GFGDVGALESLRGNADLAYILSMEPCGHCLIINNVNFCRESGLRTRTGSNIDCEKLRRRFSSLHFMVEVKGDLTAKKMVLALLELARQDHGALDCCVVVILSHGCQASHLQFPGAVYGTDGCPVSVEKIVNIFNGTSCPSLGGKPKLFFIQACGGEQKDHGFEVASTSPEDESPGSNPEPDATPFQEGLRTFDQLAAISSLPTPSDIFVSYSTFPGFVSWRDPKSGSWYVETLDDIFEQWAHSEDLQSLLLRVANAVSVKGIYKQMPGCFQFLRKKLFFKTS
relative SEAP activity Units (basal activity) ([5]; 1 μg iCasp9 per million cells): 205772
relative SEAP activity Units (basal activity) ([5]; 2 μg iCasp9 per million cells): 174366
basal activity / basal signaling (in words) [5]: intermediate; also recorded: lower basal signaling compared to the wild-type caspase-9
basal activity / basal signaling (in words) ([5]; listed as D330A N405Q): low to undetectable basal activity
cleavage in response to AP1903 [7]: impaired cleavage

B3: N405Q: ΔCasp9 (res. 135-416) N405Q, SEQ ID NO: 26 (protein)
chain: B2 chain with A196D
relative SEAP activity Units (basal activity) ([5]; 1 μg iCasp9 per million cells): 179081
relative SEAP activity Units (basal activity) ([5]; 2 μg iCasp9 per million cells): 175529
cleavage in response to AP1903 [7]: impaired cleavage
CD19 mean fluorescence intensity (MFI) of transduced PG13 cells [6]: higher levels of CD19; also recorded: enhanced CD19 mean fluorescence intensity; also recorded: higher CD19 MFIs than the other cohorts
viral titers [6]: higher viral titers
T cell proliferation and survival [8]: indistinguishable from wild type caspase-9 polypeptide or D330A
